Measurements: article PMC8922107

Biological target: Flag-PKM2 from the nuclear fraction of U87 cells (UniProt P14618)
Assay: SEC; Flag-PKM2 eluted with flag peptide in TBS (25 mM Tris, 150 mM NaCl, pH 7.2); Superdex 200 increase 10/300 GL, 4 °C, 0.5 mL/min; fractions analysed by western blot

Flag-PKM2 from the nuclear fraction of U87 cells, P14618 1-531 (enzyme; other documents disagree on this pair), sequence (P14618 whole entry): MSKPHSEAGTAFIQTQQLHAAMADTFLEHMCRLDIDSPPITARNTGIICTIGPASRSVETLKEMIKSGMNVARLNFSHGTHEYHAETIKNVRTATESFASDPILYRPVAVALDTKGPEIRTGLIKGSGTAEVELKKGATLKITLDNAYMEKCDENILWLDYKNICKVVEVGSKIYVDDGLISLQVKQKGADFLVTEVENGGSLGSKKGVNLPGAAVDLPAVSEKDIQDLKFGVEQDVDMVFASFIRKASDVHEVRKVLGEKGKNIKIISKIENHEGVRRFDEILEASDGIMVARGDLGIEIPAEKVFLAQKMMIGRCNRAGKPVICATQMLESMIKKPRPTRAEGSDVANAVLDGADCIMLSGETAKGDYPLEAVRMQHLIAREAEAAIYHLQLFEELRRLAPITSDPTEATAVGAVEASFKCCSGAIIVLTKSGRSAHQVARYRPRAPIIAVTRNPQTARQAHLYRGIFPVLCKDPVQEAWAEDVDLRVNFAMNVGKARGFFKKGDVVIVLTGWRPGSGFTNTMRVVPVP

## Flag-PKM2 from the nuclear fraction of U87 cells, P14618 1-531 (enzyme; other documents disagree on this pair)
  stoichiometry N: 2
